Results on 6 variants are retold here after IntAct's records for PubMed 20505668.

The chains are these.
B1: Isocitrate dehydrogenase kinase/phosphatase (Escherichia coli (strain K12)), P11071 (parent)
chain: MPRGLELLIAQTILQGFDAQYGRFLEVTSGAQQRFEQADWHAVQQAMKNRIHLYDHHVGLVVEQLRCITNGQSTDAAFLLRVKEHYTRLLPDYPRFEIAESFFNSVYCRLFDHRSLTPERLFIFSSQPERRFRTIPRPLAKDFHPDHGWESLLMRVISDLPLRLRWQNKSRDIHYIIRHLTETLGTDNLAESHLQVANELFYRNKAAWLVGKLITPSGTLPFLLPIHQTDDGELFIDTCLTTTAEASIVFGFARSYFMVYAPLPAALVEWLREILPGKTTAELYMAIGCQKHAKTESYREYLVYLQGCNEQFIEAPGIRGMVMLVFTLPGFDRVFKVIKDRFAPQKEMSAAHVRACYQLVKEHDRVGRMADTQEFENFVLEKRHISPALMELLLQEAAEKITDLGEQIVIRHLYIERRMVPLNIWLEQVEGQQLRDAIEEYGNAIRQLAAANIFPGDMLFKNFGVTRHGRVVFYDYDEICYMTEVNFRDIPPPRYPEDELASEPWYSVSPGDVFPEEFRHWLCADPRIGPLFEEMHADLFRADYWRALQNRIREGHVEDVYAYRRRQRFSVRYGEMLF
partner: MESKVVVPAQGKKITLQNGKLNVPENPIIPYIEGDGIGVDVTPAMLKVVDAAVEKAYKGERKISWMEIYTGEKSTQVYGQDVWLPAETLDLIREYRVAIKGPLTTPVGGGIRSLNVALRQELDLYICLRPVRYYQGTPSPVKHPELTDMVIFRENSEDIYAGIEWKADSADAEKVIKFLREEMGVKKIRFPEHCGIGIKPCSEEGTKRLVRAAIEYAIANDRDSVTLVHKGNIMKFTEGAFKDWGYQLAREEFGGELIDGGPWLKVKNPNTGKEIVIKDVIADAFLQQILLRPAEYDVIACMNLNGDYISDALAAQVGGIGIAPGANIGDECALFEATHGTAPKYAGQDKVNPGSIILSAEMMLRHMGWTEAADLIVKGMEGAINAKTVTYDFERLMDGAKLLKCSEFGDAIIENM

In one experiment the parent is B1. Conditions: with idh_ecoli icd.
Turning to MPRGLELLIAQTILQGFDAQYGRFLEVTSGAQQRFEQADWHAVQQAMKNRIHLYDHHVGLVVEQLRCITNGQSTDAAFLLRVKEHYTRLLPDYPRFEIAESFFNSVYCRLFDHRSLTPERLFIFSSQPERRFRTIPRPLAKDFHPDHGWESLLMRVISDLPLRLRWQNKSRDIHYIIRHLTETLGTDNLAESHLQVANELFYRNKAAWLVGKLITPSGTLPFLLPIHQTDDGELFIDTCLTTTAEASIVFGFARSYFMVYAPLPAALVEWLREILPGKTTAELYMAIGCQKHAKTESYREYLVYLQGCNEQFIEAPGIRGMVMLVFTLPGFDRVFAVIKDRFAPQKEMSAAHVRACYQLVKEHDRVGRMADTQEFENFVLEKRHISPALMELLLQEAAEKITDLGEQIVIRHLYIERRMVPLNIWLEQVEGQQLRDAIEEYGNAIRQLAAANIFPGDMLFKNFGVTRHGRVVFYDYDEICYMTEVNFRDIPPPRYPEDELASEPWYSVSPGDVFPEEFRHWLCADPRIGPLFEEMHADLFRADYWRALQNRIREGHVEDVYAYRRRQRFSVRYGEMLF [K336A], the “effect of a mutation on the interaction” value is “disrupting interaction”.

Take MPRGLELLIAQTILQGFDAQYGRFLEVTSGAQQRFEQADWHAVQQAMKNRIHLYDHHVGLVVEQLRCITNGQSTDAAFLLRVKEHYTRLLPDYPRFEIAESFFNSVYCRLFDHRSLTPERLFIFSSQPERRFRTIPRPLAKDFHPDHGWESLLMRVISDLPLRLRWQNKSRDIHYIIRHLTETLGTDNLAESHLQVANELFYRNKAAWLVGKLITPSGTLPFLLPIHQTDDGELFIDTCLTTTAEASIVFGFARSYFMVYAPLPAALVEWLREILPGKTTAELYMAIGCQKHAKTESYREYLVYLQGCNEQFIEAPGIRGMVMLVFTLPGFDRVFKVIKDRFAPQKEMSAAHVRACYQLVKEHDRVGRMADTQEFENFVLEKRHISPALMELLLQEAAEKITDLGEQIVIRHLYIERRMVPLNIWLEQVEGQQLRDAIEEYGNAIRQLAAANIFPGDMLFKNFGVTRHGRVVFYDYDEICYMTEVNFRDIPPPRYPKDKLASEPWYSVSPGDVFPEEFRHWLCADPRIGPLFEEMHADLFRADYWRALQNRIREGHVEDVYAYRRRQRFSVRYGEMLF [E497K;E499K]: the “effect of a mutation on the interaction” value is “disrupting interaction”. In the case of MPRGLELLIAQTILQGFDAQYGRFLEVTSGAQQRFEQADWHAVQQAMKNRIHLYDHHVGLVVEQLRCITNGQSTDAAFLLRVKEHYTRLLPDYPRFEIAESFFNSVYCRLFDHRSLTPERLFIFSSQPERRFRTIPRPLAKDFHPDHGWESLLMRVISDLPLRLRWQNKSRDIHYIIRHLTETLGTDNLAESHLQVANELFYRNKAAWLVGKLITPSGTLPFLLPIHQTDDGELFIDTCLTTTAEASIVFGFARSYFMVYAPLPAALVEWLREILPGKTTAELYMAIGCQKHAKTESYREYLVYLQGCNEQFIEAPGIRGMVMLVFTLPGFDRVFKVIKDRFAPQKEMSAAHVRACYQLVKEHDRVGRMADTQEFENFVLEKRHISPALMELLLQEAAEKITDLGEQIVIRHLYIERRMVPLNIWLEQVEGQQLRDAIEEYGNAIRQLAAANIFPGDMLFKNFGVTRHGRVVFYAYDEICYMTEVNFRDIPPPRYPEDELASEPWYSVSPGDVFPEEFRHWLCADPRIGPLFEEMHADLFRADYWRALQNRIREGHVEDVYAYRRRQRFSVRYGEMLF [D475A], the “effect of a mutation on the interaction” value was “disrupting interaction”. On the same count and under the same terms, to MPRGLELLIAQTILQGFDAQYGRFLEVTSGAQQRFEQADWHAVQQAMKNRIHLYDHHVGLVVEQLRCITNGQSTDAAFLLRVKEHYTRLLPDYPRFEIAESFFNSVYCRLFDHRSLTPERLFIFSSQPERRFRTIPRPLAKDFHPDHGWESLLMRVISDLPLRLRWQNKSRDIHYIIRHLTETLGTDNLAESHLQVANELFYRNKAAWLVGKLITPSGTLPFLLPIHQTDDGELFIDTCLTTTAEASIVFGFARSYFMVYAPLPAALVEWLREILPGKTTAELYMAIGCQKHAKTESYREYLVYLQGCNEQFIEAPGIRGMVMLVFTLPGFDRVFKVIKDRFAPQKEMSAAHVRACYQLVKEHDRVGRMADTQEFENFVLEKRHISPALMELLLQEAAEKITDLGEQIVIRHLYIERRMVPLNIWLEQVEGQQLRDAIEEYGNAIRQLAAANIFPGDMLFKAFGVTRHGRVVFYDYDEICYMTEVNFRDIPPPRYPEDELASEPWYSVSPGDVFPEEFRHWLCADPRIGPLFEEMHADLFRADYWRALQNRIREGHVEDVYAYRRRQRFSVRYGEMLF [N462A] belongs “disrupting interaction”.

Variants of B1 are the subject of the next experiment. Conditions: with idh_ecoli icd. This is another data set of the same source.
With MPRGLELLIAQTILQGFDAQYGRFLEVTSGAQQRFEQADWHAVQQAMKNRIHLYDHHVGLVVEQLRCITNGQSTDAAFLLRVKEHYTRLLPDYPRFEIAESFFNSVYCRLFDHRSLTPERLFIFSSQPERRFRTIPRPLAKDFHPDHGWESLLMRVISDLPLRLRWQNKSRDIHYIIRHLTETLGTDNLAESHLQVANELFYRNKAAWLVGKLITPSGTLPFLLPIHQTDDGELFIDTCLTTTAEASIVFGFARSYFMVYAPLPAALVEWLREILPGKTTAELYMAIGCQKHAKTESYREYLVYLQGCNEQFIEAPGIRGMVMLVFTLPGFDRVFKVIKDRFAPQKEMSAAHVRACYQLVKEHDRVGRMADTQEFENFVLEKRHISPALMELLLQEAAEKITDLGEQIVIRHLYIERRMVPLNIWLEQVEGQQLRDAIEEYGNAIRQLAAANIFPGDMLFKNFGVTRHGRVVFYDYAEICYMTEVNFRDIPPPRYPEDELASEPWYSVSPGDVFPEEFRHWLCADPRIGPLFEEMHADLFRADYWRALQNRIREGHVEDVYAYRRRQRFSVRYGEMLF [D477A], the “effect of a mutation on the interaction” value is reported as “disrupting interaction”. The same measure, in the same setting: to MPRGLELLIAQTILQGFDAQYGRFLEVTSGAQQRFEQADWHAVQQAMKNRIHLYDHHVGLVVEQLRCITNGQSTDAAFLLRVKEHYTRLLPDYPRFEIAESFFNSVYCRLFDHRSLTPERLFIFSSQPERRFRTIPRPLAKDFHPDHGWESLLMRVISDLPLRLRWQNKSRDIHYIIRHLTETLGTDNLAESHLQVANELFYRNKAAWLVGKLITPSGTLPFLLPIHQTDDGELFIDTCLTTTAEASIVFGFARSYFMVYAPLPAALVEWLREILPGKTTAELYMAIGCQKHAKTESYREYLVYLQGCNEQFIEAPGIRGMVMLVFTLPGFDRVFKVIKDRFAPQEEMSAAHVRACYQLVKEHDRVGRMADTQEFENFVLEKRHISPALMELLLQEAAEKITDLGEQIVIRHLYIERRMVPLNIWLEQVEGQQLRDAIEEYGNAIRQLAAANIFPGDMLFKNFGVTRHGRVVFYDYDEICYMTEVNFRDIPPPRYPEDELASEPWYSVSPGDVFPEEFRHWLCADPRIGPLFEEMHADLFRADYWRALQNRIREGHVEDVYAYRRRQRFSVRYGEMLF [K346E] belongs “disrupting interaction”.
